# Source: the Human Domainome abundance scans (Beltran et al. 2025)
# ± gives the uncertainty stated by the source.
# B1: Neutrophil cytosol factor 2, residues 456 to 514; numbered along this chain, P19878 (parent)
# chain: LKKGSQVEALFSYEATQPEDLEFQEGDIILVLSKVNEEWLEGECKGKVGIFPKVFVEDC
# Variants of: B1
# Test: abundance fitness (aPCA) (normalised: wild type 0, dead -1); higher = more abundant; growth selection in yeast, the domain comes from the species named
# Details: Homo sapiens
row,Variant,abundance fitness
1,LKKGSQVEALFSYEATQPEDLEFQEGDIILVLSKYNEEWLEGECKGKVGIFPKVFVEDC,-0.69 ± 0.17
2,LKKGSQVEALFSYEATQPEDLEFQEGDIILVLSKKNEEWLEGECKGKVGIFPKVFVEDC,-0.045 ± 0.23
3,LKKGSQVEALFSYEATQPEDLEFQEGDIILVLSKCNEEWLEGECKGKVGIFPKVFVEDC,-0.475 ± 0.13
4,LKKGSQVEALFSYEATQPEDLEFQEGDIILVLSKHNEEWLEGECKGKVGIFPKVFVEDC,-0.806 ± 0.23
5,LKKGSQVEALFSYEATQPEDLEFQEGDIILVLSKTNEEWLEGECKGKVGIFPKVFVEDC,-0.808 ± 0.2
6,LKKGSQVEALFSYEATQPEDLEFQEGDIILVLSKQNEEWLEGECKGKVGIFPKVFVEDC,-0.302 ± 0.32
7,LKKGSQVEALFSYEATQPEDLEFQEGDIILVLSKLNEEWLEGECKGKVGIFPKVFVEDC,-0.096 ± 0.089
8,LKKGSQVEALFSYEATQPEDLEFQEGDIILVLSKDNEEWLEGECKGKVGIFPKVFVEDC,-0.588 ± 0.17
9,LKKGSQVEALFSYEATQPEDLEFQEGDIILVLSKNNEEWLEGECKGKVGIFPKVFVEDC,-0.517 ± 0.15
10,LKKGSQVEALFSYEATQPEDLEFQEGDIILVLSKRNEEWLEGECKGKVGIFPKVFVEDC,-0.235 ± 0.096
11,LKKGSQVEALFSYEATQPEDLEFQEGDIILVLSKENEEWLEGECKGKVGIFPKVFVEDC,-1.04 ± 0.48
12,LKKGSQVEALFSYEATQPEDLEFQEGDIILVLSKANEEWLEGECKGKVGIFPKVFVEDC,-0.074 ± 0.1
13,LKKGSQVEALFSYEATQPEDLEFQEGDIILVLSKWNEEWLEGECKGKVGIFPKVFVEDC,-0.019 ± 0.16
14,LKKGSQVEALFSYEATQPEDLEFQEGDIILVLSKFNEEWLEGECKGKVGIFPKVFVEDC,-0.264 ± 0.12
15,LKKGSQVEALFSYEATQPEDLEFQEGDIILVLSKSNEEWLEGECKGKVGIFPKVFVEDC,-0.459 ± 0.1
16,LKKGSQVEALFSYEATQPEDLEFQEGDIILVLSKMNEEWLEGECKGKVGIFPKVFVEDC,-0.081 ± 0.24
17,LKKGSQVEALFSYEATQPEDLEFQEGDIILVLSKGNEEWLEGECKGKVGIFPKVFVEDC,-0.613 ± 0.11
18,LKKGSQVEALFSYEATQPEDLEFQEGDIILVLSKVAEEWLEGECKGKVGIFPKVFVEDC,-0.063 ± 0.14
19,LKKGSQVEALFSYEATQPEDLEFQEGDIILVLSKVSEEWLEGECKGKVGIFPKVFVEDC,-0.586 ± 0.11
20,LKKGSQVEALFSYEATQPEDLEFQEGDIILVLSKVMEEWLEGECKGKVGIFPKVFVEDC,-0.43 ± 0.28
21,LKKGSQVEALFSYEATQPEDLEFQEGDIILVLSKVHEEWLEGECKGKVGIFPKVFVEDC,-0.276 ± 0.13
22,LKKGSQVEALFSYEATQPEDLEFQEGDIILVLSKVCEEWLEGECKGKVGIFPKVFVEDC,-0.761 ± 0.15
23,LKKGSQVEALFSYEATQPEDLEFQEGDIILVLSKVVEEWLEGECKGKVGIFPKVFVEDC,-0.686 ± 0.18

row,Variant,abundance fitness
1,LKKGSQVEALFSYEATQPEDLEFQEGDIILVLSKVTEEWLEGECKGKVGIFPKVFVEDC,-0.867 ± 0.22
2,LKKGSQVEALFSYEATQPEDLEFQEGDIILVLSKVLEEWLEGECKGKVGIFPKVFVEDC,-0.968 ± 0.2
3,LKKGSQVEALFSYEATQPEDLEFQEGDIILVLSKVPEEWLEGECKGKVGIFPKVFVEDC,-1.03 ± 0.29
4,LKKGSQVEALFSYEATQPEDLEFQEGDIILVLSKVWEEWLEGECKGKVGIFPKVFVEDC,-0.712 ± 0.27
5,LKKGSQVEALFSYEATQPEDLEFQEGDIILVLSKVGEEWLEGECKGKVGIFPKVFVEDC,-0.103 ± 0.094
6,LKKGSQVEALFSYEATQPEDLEFQEGDIILVLSKVFEEWLEGECKGKVGIFPKVFVEDC,-0.446 ± 0.11
7,LKKGSQVEALFSYEATQPEDLEFQEGDIILVLSKVREEWLEGECKGKVGIFPKVFVEDC,-0.963 ± 0.19
8,LKKGSQVEALFSYEATQPEDLEFQEGDIILVLSKVDEEWLEGECKGKVGIFPKVFVEDC,-0.477 ± 0.17
9,LKKGSQVEALFSYEATQPEDLEFQEGDIILVLSKVYEEWLEGECKGKVGIFPKVFVEDC,-0.754 ± 0.2
10,LKKGSQVEALFSYEATQPEDLEFQEGDIILVLSKVKEEWLEGECKGKVGIFPKVFVEDC,0.093 ± 0.23
11,LKKGSQVEALFSYEATQPEDLEFQEGDIILVLSKVNEELLEGECKGKVGIFPKVFVEDC,-0.8 ± 0.14
12,LKKGSQVEALFSYEATQPEDLEFQEGDIILVLSKVNEEELEGECKGKVGIFPKVFVEDC,-0.269 ± 0.26
13,LKKGSQVEALFSYEATQPEDLEFQEGDIILVLSKVNEEDLEGECKGKVGIFPKVFVEDC,-0.598 ± 0.17
14,LKKGSQVEALFSYEATQPEDLEFQEGDIILVLSKVNEEILEGECKGKVGIFPKVFVEDC,-0.109 ± 0.091
15,LKKGSQVEALFSYEATQPEDLEFQEGDIILVLSKVNEEMLEGECKGKVGIFPKVFVEDC,0.036 ± 0.26
16,LKKGSQVEALFSYEATQPEDLEFQEGDIILVLSKVNEENLEGECKGKVGIFPKVFVEDC,-0.196 ± 0.11
17,LKKGSQVEALFSYEATQPEDLEFQEGDIILVLSKVNEEPLEGECKGKVGIFPKVFVEDC,-0.598 ± 0.2
18,LKKGSQVEALFSYEATQPEDLEFQEGDIILVLSKVNEECLEGECKGKVGIFPKVFVEDC,-0.379 ± 0.099
19,LKKGSQVEALFSYEATQPEDLEFQEGDIILVLSKVNEEGLEGECKGKVGIFPKVFVEDC,-0.414 ± 0.1
20,LKKGSQVEALFSYEATQPEDLEFQEGDIILVLSKVNEEFLEGECKGKVGIFPKVFVEDC,-0.49 ± 0.11
21,LKKGSQVEALFSYEATQPEDLEFQEGDIILVLSKVNEEHLEGECKGKVGIFPKVFVEDC,-1.03 ± 0.24
22,LKKGSQVEALFSYEATQPEDLEFQEGDIILVLSKVNEEALEGECKGKVGIFPKVFVEDC,-0.643 ± 0.17
